In publication PMC4297295, “Structural Conservation Despite Huge Sequence Diversity Allows EPCR Binding by the PfEMP1 Family Implicated in Severe Childhood Malaria” (Cell Host & Microbe, 2015):

B1: CIDRα1.7 domain of PfEMP1 IT4var22 (domain or fragment)
chain: PYCGLDCGGKTCTAKQEIYPDCVYNGAYEPPNGAETTEITVLYSADQEGDISNKLSEFCNDENNKNSQKWQCYYVSSENNGCKMEKKNANHTPEVKITKFHNFFEMWVTYLLTETITWKDKLKTCMNNTKTADCIHECNKNCVCFDKWVKQKEDEWNSIKKLFTKEKKMPKQYYGNINIYFESFFFHVMKKLNKEAKWNKLMDELRNKIELSKGNEGTKDLQDAIELLLEYLKEKSTICKDNNTNEACDPTVDPTKNPC
notes: also called CIDRa1.7 IT4var22_IT4; IT4var22 (1.7)
B2: CIDRα1.1 domain of PfEMP1 IT4var20 (domain or fragment)
chain: PDCVVQCKGGKCTEDKKNDKCRSKIIKKILQSEEPTEIHVLNSDDKQGDITKKLEVFCSSTTNYEGRNVQKWKCYNKNSDYNNCEMNISSYKDSTDANVMLSVECFHSWAKNLLIDTIKWEHQLKNCINNTNVTYCESKCIKNCECYEKWIKRKEHEWEKVKNVFGNNNRMSYIYYNNLSRVFDSFLFQVMFALDQDEKGKWDQFTEDLKKKFEPSKTNTPTGKSQDAIEFLLDHLKDNALTCRDNNSNESCDVSKKVKTNPC
notes: also called CIDRa1.1 IT4var20_IT4; IT4var20 (1.1)
B3: CIDRα1.1 domain of PfEMP1 RAJ116var08 (domain or fragment)
chain: PDCVVDCTGGNCKENKKHDNCRSKIIEEILRSEETTDIDVLYSGKGPGAITKKLHDFCSNPNNYKRANVQKWKCYNKNKDYNNCEMNISSYKDATDPNVMLSVQCFYSWAQNLLIDIIRWEHQLKDCINNTNVTDCDNECNKNCECFEKWIKQKQKEWQQVKEVLKKKDENSHNYYNKLRSVFDSFLYQVMFALNNEEKGKWDQFTEDLEKKFESSKKSAGTGNSQDAIEFLLDHLNDNAITCKDNNSKESC
notes: also called CIDRa1.1 RAJ116var08_RAJ116; RAJ116var08 (1.1)
B4: CIDRα1.5b domain 1983-13 (patient isolate 1983) (domain or fragment)
chain: PDCGVECNGKTCTKKEETDENCGKPPNYTIPTDVTPTDINVLYSGDEQGYITKRLSEFCGPTKNYIGKKNELWKCYYDDKQKNNNNNNNICKLQPNAHIKNENIIINFDNFFEFWVRRFLNDTIDWKYDLNTCMNFTNTTKCNNNCNKNCKCFEQWVNIKKTEWKNVTEYFFKHDETSKKKYCEILKDIFENYYVEVIEKFYKGKHKWKERIEKLKNMDCSQVKIGTNASQDQIDIFLSNLKGDATQCTSKNPKSACNKPHAARIITRATTRNPC
B5: CIDRα1.4 domain of PfEMP1 DD2var32 (domain or fragment)
chain: PDCGVECNKGTCKKKPNDSNCRNNEAYIPPRDVTPTKINVLYSGDGHGDITKKLKGFCSNPTDYDGKNYENWQCYYKSSEDNKCQMTSLSQTLQKHHYVMSFYAFFDFWVRKFLIDTIKWENELKNCINNTTTDCSDGCNKHCVCFDKWVKQKEKEWNSIKKLFTKKNNVPQPYYTNINNLFDSFYFQVMYELNHDEAKWKELTQELRNKINSSKKNTDAADSKDAIELLLEYLKEKSTICKDNNTNEAC
notes: also called CIDRa1.4 DD2var32_DD2; DD2var32 (1.4)
B6: CIDRα1.1 domain GA011_ERS009959 (domain or fragment)
chain: PDCVVYCEGGECKENENGDNCRSEIIKEIVRSETPTVIDVLYSGNGQDHITEKLDHFCSSTNKEDRKYYKTLKCYNKNNDYNKCEMISWLYQDPKESNLMLSIQCFYSWAQNLLIDTIRWEHQLKDCINNTNVTDCKSNCNKNCKCYKKWIEQKGSEWQQVKQVLKKKDKNSENYYDKLKDVFDTLYFEVMHELNKGKEKGKSEELTEDLKKKFGPSKKNTDAADSKDAIEFLLDHLNDNAITCKDNNSLAVENCTRTKSNPC
notes: also called CIDRa1.1 GA011_ERS009959; GA011 (1.1)
B7: CIDRα1.7 domain 1965-8 (patient isolate 1965) (domain or fragment)
chain: PHCGVDCNGKKCTLKSDNDPQCVNKLKYEPPYGVKPTEITVLYSADQEGDISKKLSEFCNDEKKINSKNIETWKCYYKSTYNNACKMDKNSKNHTPEVKITKFHNFFEMWIVYLLTETITWNDKLKTCMNNIKTTDCIDECNTNCVCFDKWVKQKGKEWNSIKKLFIKEQKNPKQNYGNINIYFESFFFHVMDKLNHDEAKWNELMNELKQIIDSSKANTDNKNLQDAIKVLFDHLKEIATICKDNNTNEACEDSKKETQNPC
B8: CIDRα1.8b domain 2053-3 (patient isolate 2053) (domain or fragment)
chain: PICGVKCENKSCTDKENDDDCKNKKKYDPPKGVTPIDIPILYSGDKQGDITKKLEDFCYNRTKENEKTYQNWKCYYKDSEFNKCKMESKSGKSTTQEKIISFDEFFYLWVNNLLIDSIMWENDIKHCINNTNVTNCKNKCNENCKCFKNWVKKKEEEWTKVKQILGNRSENLNNYYNKLNSLFKGFFFEVVYKFNNKEEKWNKLTEKLEQKIGSSKGKEGVENPKDAIELLLDHLKENAITCKDNNSLEEDKNCPKIKINPC
B9: CIDRα1.1 domain of PfEMP1 IT4var19 (domain or fragment)
chain: PDCVVVCEGGNCKEKTEDDNCRSEIIKKILKYETPTPIDVLYSGKGQGLITKKLEDFCSSTTNYEGTNVQKWKCYNKNKDYNNCEMNISSYKDATDPNVMLSVECFHSWAKNLLIDTIRWEHQLKNCINNTNVTDCTSKCIKNCECYEKWIKEKEKEWPQVKGVLKKKDETSHNYYDKLKDVFDRFLFEVKGALDQDEKGKWDQFTKDLEKKFGPSVESAGTANSQDAIELLLDHLNDNATTCKDNNSLAVENC
notes: also called CIDRa1.1 IT4var19_IT4; IT4var19 (1.1)
B10: CIDRα1.6a domain of PfEMP1 HB3var02 (domain or fragment)
chain: PECGVQCSGTTCTPKKVIHPNCKDKETYEPGDAKTTDITVLYSGDEEGDIAQKLQDFCNDKNKENDENYEKWQCYYKSSEINKCQMTRSSKKVPKHRGVMSFYAFFDLWVKNLLIDSINWKNDLTNCINNTNVTDCNKDCNKNCVCFDQWVIKKEEEWKNVNKVFENKNIDLHDYYNKLNKHFEGYFFHVMKELNKEEKWYKLMEDLKEKIDFSKGKADGKNSEGAIKVLFDHLKEIAEKCIHNNSNESCEASTNRTPNPC
notes: also called CIDRa1.6a HB3var02_HB3; HB3var02 (1.6a)
B11: CIDRα1.5a domain GA013_ERS010323 (domain or fragment)
chain: PYCGVDCSNGTCKENGNDDNCGEQQNYNIPKGVDPTNINVLYSVDGHGDIAKRLSTFCNDKNNKNAKNNEIWQCYYIGHKNNQCKIEKSVSQKKHQTKIAPFDYFFDLWVTNLLRDNIDWKNELKNCINNKNTEKCNKECNDNCKCFQSWLNKKEDEWNKITGLLKNKNGILQNYYNKLKSHFDYYFFQVINNINKGEEKWKKLKEDLKKEIDFSKLKTNTGDSQDSIKLLLDHENKNAGTCLKNNPIDSCPKAEPQKSDEKVQPQDTPPNSC
notes: also called CIDRa1.5a GA013_ERS010323; GA013 (1.5a)
B12: CIDRα1.8a domain GA026_ERS010178 (domain or fragment)
chain: PDCVVDCKGAKCEQKMKPDGTCEKPQIYTRPKDVTPKIIKVLFSGDNQEDITEKLSSFCSNPKSKIDRNYQTWKCYYKSGHYNICEMKGSLYKYPEHPNDMLSVECFHLWVKNLLIDTIKWETKLKKCINNTNVTDCDNECNKNCECFENWVEQKKKEWEEVRKVYKDQKESLGIYYKKLENLFDTYYFEVMGALENEEKHGKWNQLTAKLKQIIESHKKNRHSGNSQDAIELLLDHLKETATTCKDNNSNESCDVSKDSKTNPC
notes: also called CIDRa1.8a GA026_ERS010178; GA026 (1.8a)
B13: CIDRα1.6b domain GA018_ERS010570 (domain or fragment)
chain: PYCGLDCVGTECTAKEEIYPDCVYNGEYDPPKDVRPTEINVIDSGNAVNISEKLNDFCTNPTNPNDKIYQKWQCYYKSSKVNKCQMTSLTQTLQKHHYVMTFYIFFDLWVKNLLRDSVKWEIELKDCINNTNVTDCNNKCNKNCVCFDKWVKQKKKEWDSIKKLFKTEKDEMKKYYTNINKNFEFFFFRVMYELNNEEAKWNKLMENLRIKIKSSKRNKRTKDSEGVIKVLFDHLKETATICKDNNTNEACVSSQNATTNPC
notes: also called CIDRa1.6b GA018_ERS010570; GA018 (1.6b)
B14: CIDRα1.6a domain of PfEMP1 PFD1235w (domain or fragment)
chain: PECGVQCSGTTCTPKKVIHPNCKDKETYEPGDAKTTDITVLYSGDEEGDIAQKLQDFCNDKNKENDENYEKWQCYYKSSEINKCQMTPSSHKVPKHGYIMSFYAFFDLWVKNLLIDSINWKNDLTNCINNTNVTDCKNDCNTNCKCFENWAKTKENEWKKVKTIYKNENGNTNNYYKKLNNHFQGYFFHVMKELNKEEKWYKLMEDLKEKIDSSNLKNGTKDSEGAIKVLFDHLKDIAERCIDNNSKDSC
notes: also called CIDRa1.6a PFD1235w_3D7; PFD1235w (1.6a)
B15: CIDRα1.6b domain GA019_ERS010031 (domain or fragment)
chain: PYCGLDCVGKTCTAKQEIYPDCVYNGDYEPPNGAETTEITVLYNDNEGDMSKKLSQFCSNENKENIENYQKWKCYYKDRDDIECEMISSSQKDEKHRKVMIFYNFFDLWVKNLLRDSIKWEIELKDCINNTNVTDCKSVCNVNCECFDKWVKQKEKEWDSIKKLLKKKKNVSKKYYTNINKNFEFFFFRVMYELNNEEAKWNKLMENLRTKINSYKKNKRTKDSEGAIKVLFDHLKETATICKDNNTNEACVSSQNATTNPC
notes: also called CIDRa1.6b GA019_ERS010031; GA019 (1.6b)
B16: CIDRα1.5a domain 1965-2 (patient isolate 1965) (domain or fragment)
chain: PDCGVECKNGRCKKKTDADGNCGKTQIYDIPKDVTPTDINVLYSGDEYGDIAKRLSEFCRDSKKENGKNTEIWHCYYIGDKHNQCKMEKAVAENKHQTKITTFDFFFDLWIKNLLRDTINWKSQLKNCINNTNKTNCNKTCNENCKCFENWVNQKEKEWNNMKELFKNKNRTSQNYYNKLKSHFDNYFFLVINNVNKGEAKWKKFTDELRNKIDSSKAKNGTSDSQDSIKMLLEHLKEDGTTCTANNPDSICNTPGTDARSLEPASKIEPQNKDTRTNPC
B17: CIDRα1.8a domain of PfEMP1 MAL6P1.316 (domain or fragment)
chain: PACVVECDGGKCEEKKNSDGTCIEAQIYTVVRDETPTPIKVLFSGDHQKDITKKLSSFCKNPESENNRDYQTWQCYYKSSDYNNCEMKGSLYKVEGDPNIIVSHECFHLWVQSLLIDTIKWETKLKKCINNTNVTNCYNKCNKNCECFENWVEQKKKEWENVNDVYKDQKQSLGIYYEKLENLFKSNFFQVMKALEGDEKGKWYQFKDDLKKKFEPSEKNTRTTDSQDAIKLILDHLKDNATTCKDNNSLEEDENC
notes: also called CIDRa1.8a MAL6P1.316_3D7; MAL6P1.316 (1.8a)

Target: T1, endothelial protein C receptor (EPCR), extracellular domain, biotinylated on the N-terminal BAP tag (human, UniProt Q9UNN8 18-210, biotin attached to the N-terminal BAP tag (BirA))
T1 construct: also called biotinylated recombinant EPCR; ECPR
T1 sequence: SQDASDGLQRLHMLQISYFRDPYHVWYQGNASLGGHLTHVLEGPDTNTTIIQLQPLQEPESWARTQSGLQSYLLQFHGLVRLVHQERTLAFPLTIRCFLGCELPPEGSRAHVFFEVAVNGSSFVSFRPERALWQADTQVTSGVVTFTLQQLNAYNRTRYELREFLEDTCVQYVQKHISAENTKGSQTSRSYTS
Assay: SPR
Details: both partners purified

Binder	Kd	koff	kon
B1	17 nM	0.00105 s⁻¹	61300 M⁻¹ s⁻¹
B2	0.37 nM	0.000123 s⁻¹	332000 M⁻¹ s⁻¹
B3	1.4 nM	3.85e-05 s⁻¹	27900 M⁻¹ s⁻¹
B4	169000 nM	0.00047 s⁻¹	2.8 M⁻¹ s⁻¹
B5	0.3 nM	0.000343 s⁻¹	1.06e+06 M⁻¹ s⁻¹
B6	182 nM	7.24e-05 s⁻¹	389 M⁻¹ s⁻¹
B7	3.5 nM	0.00021 s⁻¹	59200 M⁻¹ s⁻¹
B8	4 nM	7.65e-05 s⁻¹	20200 M⁻¹ s⁻¹
B9	16 nM	0.000364 s⁻¹	22700 M⁻¹ s⁻¹
B10	1400 nM	0.00139 s⁻¹	975 M⁻¹ s⁻¹
B11	57 nM	0.000832 s⁻¹	14700 M⁻¹ s⁻¹
B12	48 nM	0.000842 s⁻¹	17700 M⁻¹ s⁻¹
B13	15 nM	0.000531 s⁻¹	35100 M⁻¹ s⁻¹
B14	8.8 nM	6.62e-05 s⁻¹	7550 M⁻¹ s⁻¹
B15	8.8 nM	0.000328 s⁻¹	37000 M⁻¹ s⁻¹
B16	54 nM	0.00103 s⁻¹	18900 M⁻¹ s⁻¹
B17	50 nM	0.000828 s⁻¹	16700 M⁻¹ s⁻¹
